Test results: article PMC12295664
Blank lines part the entries; values can stand above or below the substance they belong to.

Key:
[1] = biological target: F-actin of rabbit psoas ghost muscle fibers (rabbit (endogenous in psoas muscle fibers)) (UniProt P68135); assay: reconstitution of ghost muscle fibers, washing, SDS-PAGE densitometry; single rabbit psoas ghost fibers (F-actin held in the fiber) incubated with troponin, tropomyosin and S1 at 1.0–2.5 mg/mL in 50 mM KCl, 3 mM MgCl2, 1 mM DTT, 6.7 mM K,Na–phosphate pH 7.0; unbound protein washed off; 5–10 fibers on SDS-PAGE, bands quantified with calibration curves; average molar ratios to actin
[2] = biological target: AEDANS–S1 (myosin subfragment-1 labeled with 1,5-IAEDANS at Cys707); assay: polarized fluorescence of AEDANS-S1 in ghost fibers; settings: read off a plot
[3] = scale: mol actin per mol tropomyosin
[4] = S1 (no nucleotide), Actin + Tpm + Tn, + Ca2+, parent: est. 0.16
[5] = S1 (no nucleotide), Actin + Tpm + Tn, - Ca2+, parent: est. 0.14
[6] = S1 + ADP, Actin + Tpm + Tn, + Ca2+, parent: est. 0.16
[7] = S1 + ADP, Actin + Tpm + Tn, - Ca2+, parent: est. 0.18
[8] = S1 + ATP, Actin + Tpm + Tn, + Ca2+, parent: est. 0.46
[9] = S1 + ATP, Actin + Tpm + Tn, - Ca2+, parent: est. 0.36
[10] = S1 (no nucleotide), Actin + Tpm + Tn, - Ca2+, parent: est. 0.26
[11] = S1 + ADP, Actin + Tpm + Tn, + Ca2+, parent: est. 0.17
[12] = S1 + ADP, Actin + Tpm + Tn, - Ca2+, parent: est. 0.27
[13] = S1 + ATP, Actin + Tpm + Tn, - Ca2+, parent: est. 0.46
[14] = S1 + Tpm, no troponin, no nucleotide, parent: est. 0.16

Sequence of wild-type γ-tropomyosin (Tpm3.12, human TPM3) with N-terminal Met–Ala–Ser extension (natural protein) (Q5KR47 whole entry): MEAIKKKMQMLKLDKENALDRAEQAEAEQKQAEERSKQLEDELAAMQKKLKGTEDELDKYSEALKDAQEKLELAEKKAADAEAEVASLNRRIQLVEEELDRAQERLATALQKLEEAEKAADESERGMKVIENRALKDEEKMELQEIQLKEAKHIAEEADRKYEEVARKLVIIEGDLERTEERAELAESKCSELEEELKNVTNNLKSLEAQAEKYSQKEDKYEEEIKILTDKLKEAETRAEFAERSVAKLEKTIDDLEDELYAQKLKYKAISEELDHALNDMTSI
Sequence of troponin (rabbit skeletal muscle troponin complex) (P02643 whole entry, looked up): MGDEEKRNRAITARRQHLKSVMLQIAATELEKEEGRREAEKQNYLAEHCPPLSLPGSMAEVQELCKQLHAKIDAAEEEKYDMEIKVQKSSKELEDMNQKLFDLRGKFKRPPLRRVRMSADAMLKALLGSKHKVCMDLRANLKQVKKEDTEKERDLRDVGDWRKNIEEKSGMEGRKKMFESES
Sequence of troponin (rabbit skeletal muscle troponin complex) (P02586 whole entry, looked up): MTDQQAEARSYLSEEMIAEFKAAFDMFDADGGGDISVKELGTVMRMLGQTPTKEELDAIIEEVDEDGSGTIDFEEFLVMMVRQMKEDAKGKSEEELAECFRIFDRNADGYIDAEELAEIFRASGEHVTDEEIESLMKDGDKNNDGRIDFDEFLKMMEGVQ
Sequence of wild-type α-tropomyosin (Tpm1.1) with N-terminal Met–Ala–Ser extension (natural protein) (P04692 whole entry): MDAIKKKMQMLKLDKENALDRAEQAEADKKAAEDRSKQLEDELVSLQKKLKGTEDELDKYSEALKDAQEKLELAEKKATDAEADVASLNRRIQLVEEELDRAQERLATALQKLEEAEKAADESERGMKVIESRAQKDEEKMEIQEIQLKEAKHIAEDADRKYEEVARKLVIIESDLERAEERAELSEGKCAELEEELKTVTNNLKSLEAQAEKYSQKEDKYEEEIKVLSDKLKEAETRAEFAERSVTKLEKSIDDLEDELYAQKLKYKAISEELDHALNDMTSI
Sequence of myosin subfragment-1 (S1), lacking regulatory light chains (domain or fragment) (Q28641 whole entry, the tested form may be a part): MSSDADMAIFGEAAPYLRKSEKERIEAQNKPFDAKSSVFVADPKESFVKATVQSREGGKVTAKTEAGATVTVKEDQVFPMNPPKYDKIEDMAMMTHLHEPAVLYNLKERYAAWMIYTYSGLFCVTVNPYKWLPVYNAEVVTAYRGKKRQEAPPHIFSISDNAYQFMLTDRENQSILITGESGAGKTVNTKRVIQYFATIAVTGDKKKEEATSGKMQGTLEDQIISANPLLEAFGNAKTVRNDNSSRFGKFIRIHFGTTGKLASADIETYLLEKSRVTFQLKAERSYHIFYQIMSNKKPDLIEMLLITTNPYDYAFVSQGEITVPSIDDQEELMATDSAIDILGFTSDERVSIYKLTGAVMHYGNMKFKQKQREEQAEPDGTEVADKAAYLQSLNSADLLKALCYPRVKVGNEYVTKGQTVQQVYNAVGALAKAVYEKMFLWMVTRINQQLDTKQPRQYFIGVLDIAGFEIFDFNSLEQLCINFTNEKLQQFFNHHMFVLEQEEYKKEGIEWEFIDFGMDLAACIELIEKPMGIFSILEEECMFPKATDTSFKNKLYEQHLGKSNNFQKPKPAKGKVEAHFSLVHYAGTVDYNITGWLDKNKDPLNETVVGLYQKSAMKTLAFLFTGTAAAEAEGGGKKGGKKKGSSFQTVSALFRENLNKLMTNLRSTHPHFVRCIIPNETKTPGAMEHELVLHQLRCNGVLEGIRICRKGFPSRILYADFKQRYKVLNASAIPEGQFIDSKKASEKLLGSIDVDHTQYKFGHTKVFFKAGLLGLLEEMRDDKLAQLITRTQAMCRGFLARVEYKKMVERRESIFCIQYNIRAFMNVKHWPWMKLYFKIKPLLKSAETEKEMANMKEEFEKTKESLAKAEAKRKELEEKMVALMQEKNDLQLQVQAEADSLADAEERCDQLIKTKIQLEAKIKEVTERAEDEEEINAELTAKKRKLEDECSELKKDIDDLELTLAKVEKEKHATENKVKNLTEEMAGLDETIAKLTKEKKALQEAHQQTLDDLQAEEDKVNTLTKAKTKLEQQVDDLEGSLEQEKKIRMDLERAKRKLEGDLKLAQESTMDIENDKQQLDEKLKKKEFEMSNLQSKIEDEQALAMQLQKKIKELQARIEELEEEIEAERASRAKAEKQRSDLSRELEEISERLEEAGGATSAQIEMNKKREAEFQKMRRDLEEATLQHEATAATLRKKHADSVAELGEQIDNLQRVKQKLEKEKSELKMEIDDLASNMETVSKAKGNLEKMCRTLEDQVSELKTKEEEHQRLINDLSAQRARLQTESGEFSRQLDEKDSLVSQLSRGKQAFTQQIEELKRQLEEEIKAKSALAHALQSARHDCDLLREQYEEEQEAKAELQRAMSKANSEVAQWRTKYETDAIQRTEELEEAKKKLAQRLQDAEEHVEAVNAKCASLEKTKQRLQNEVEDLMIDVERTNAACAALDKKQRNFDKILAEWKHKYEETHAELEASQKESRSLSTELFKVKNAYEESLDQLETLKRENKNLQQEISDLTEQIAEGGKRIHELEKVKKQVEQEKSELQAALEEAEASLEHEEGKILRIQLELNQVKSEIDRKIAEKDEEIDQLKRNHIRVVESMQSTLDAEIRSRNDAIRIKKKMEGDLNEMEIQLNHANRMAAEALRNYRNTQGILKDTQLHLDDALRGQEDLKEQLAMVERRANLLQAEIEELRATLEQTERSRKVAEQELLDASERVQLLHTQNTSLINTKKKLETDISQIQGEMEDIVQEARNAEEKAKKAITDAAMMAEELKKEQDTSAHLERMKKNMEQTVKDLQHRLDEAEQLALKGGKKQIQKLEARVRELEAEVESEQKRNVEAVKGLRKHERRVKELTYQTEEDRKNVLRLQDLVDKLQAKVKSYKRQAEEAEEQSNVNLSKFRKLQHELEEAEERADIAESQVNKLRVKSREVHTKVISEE
Sequence of wild-type β-tropomyosin (human TPM2) with N-terminal Met–Ala–Ser extension (natural protein) (P07951 whole entry): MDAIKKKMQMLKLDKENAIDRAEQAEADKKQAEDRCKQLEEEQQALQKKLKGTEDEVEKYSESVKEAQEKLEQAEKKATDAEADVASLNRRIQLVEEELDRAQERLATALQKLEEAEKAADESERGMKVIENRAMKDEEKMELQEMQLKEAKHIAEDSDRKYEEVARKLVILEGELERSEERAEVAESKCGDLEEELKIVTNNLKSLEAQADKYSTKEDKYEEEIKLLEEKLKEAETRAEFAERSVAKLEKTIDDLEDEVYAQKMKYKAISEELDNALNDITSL

- stoichiometry N ([1]; scale: mol actin per mol S1): 4.1
Substance: myosin subfragment-1 (S1), lacking regulatory light chains (domain or fragment)

- stoichiometry N ([1]; scale: mol actin per mol troponin): 7.5
Substance: troponin (rabbit skeletal muscle troponin complex) (from UniProt P02586 1-160; P02643 1-182)

- stoichiometry N [1, 3]: 6.9
Substance: wild-type α-tropomyosin (Tpm1.1) with N-terminal Met–Ala–Ser extension (natural protein)

- other: N (relative number of disordered fluorophores) [2, 4]: 0.17 rel. units
- other: N (relative number of disordered fluorophores) [2, 5]: 0.06 rel. units
- other: N (relative number of disordered fluorophores) [2, 6]: 0.11 rel. units
- other: N (relative number of disordered fluorophores) [2, 7]: 0.23 rel. units
- other: N (relative number of disordered fluorophores) [2, 8]: 0.34 rel. units
- other: N (relative number of disordered fluorophores) [2, 9]: 0.36 rel. units
Substance: wild-type α-tropomyosin (Tpm1.1) with N-terminal Met–Ala–Ser extension K168E

- other: N (relative number of disordered fluorophores) [2, 4]: 0.14 rel. units
- other: N (relative number of disordered fluorophores) [2, 5]: 0.085 rel. units
- other: N (relative number of disordered fluorophores) [2, 6]: 0.2 rel. units
- other: N (relative number of disordered fluorophores) [2, 7]: 0.24 rel. units
- other: N (relative number of disordered fluorophores) [2, 8]: 0.44 rel. units
- other: N (relative number of disordered fluorophores) [2, 9]: 0.35 rel. units
Substance: wild-type α-tropomyosin (Tpm1.1) with N-terminal Met–Ala–Ser extension R167H

- stoichiometry N [1, 3]: 6.9
Substance: wild-type β-tropomyosin (human TPM2) with N-terminal Met–Ala–Ser extension (natural protein)

- other: N (relative number of disordered fluorophores) ([2]; S1 (no nucleotide), Actin + Tpm + Tn, + Ca2+, parent: est. 0.40): 0.38 rel. units
- other: N (relative number of disordered fluorophores) ([2]; S1 (no nucleotide), Actin + Tpm + Tn, - Ca2+, parent: est. 0.25): 0.28 rel. units
- other: N (relative number of disordered fluorophores) ([2]; S1 + ADP, Actin + Tpm + Tn, + Ca2+, parent: est. 0.39): 0.39 rel. units
- other: N (relative number of disordered fluorophores) ([2]; S1 + ADP, Actin + Tpm + Tn, - Ca2+, parent: est. 0.28): 0.33 rel. units
- other: N (relative number of disordered fluorophores) ([2]; S1 + ATP, Actin + Tpm + Tn, + Ca2+, parent: est. 0.68): 0.6 rel. units
- other: N (relative number of disordered fluorophores) ([2]; S1 + ATP, Actin + Tpm + Tn, - Ca2+, parent: est. 0.44): 0.53 rel. units
- other: N (relative number of disordered fluorophores) ([2]; S1 + Tpm, no troponin, no nucleotide, parent: est. 0.26): 0.39 rel. units
Substance: wild-type β-tropomyosin (human TPM2) with N-terminal Met–Ala–Ser extension E117K

- other: N (relative number of disordered fluorophores) ([2]; S1 (no nucleotide), Actin + Tpm + Tn, + Ca2+, parent: est. 0.27): 0.26 rel. units
- other: N (relative number of disordered fluorophores) ([2]; S1 (no nucleotide), Actin + Tpm + Tn, - Ca2+, parent: est. 0.29): 0.28 rel. units
- other: N (relative number of disordered fluorophores) ([2]; S1 + ADP, Actin + Tpm + Tn, + Ca2+, parent: est. 0.30): 0.28 rel. units
- other: N (relative number of disordered fluorophores) ([2]; S1 + ADP, Actin + Tpm + Tn, - Ca2+, parent: est. 0.32): 0.27 rel. units
- other: N (relative number of disordered fluorophores) ([2]; S1 + ATP, Actin + Tpm + Tn, + Ca2+, parent: est. 0.45): 0.61 rel. units
- other: N (relative number of disordered fluorophores) ([2]; S1 + ATP, Actin + Tpm + Tn, - Ca2+, parent: est. 0.60): 0.38 rel. units
- other: N (relative number of disordered fluorophores) ([2]; S1 + Tpm, no troponin, no nucleotide, parent: est. 0.28): 0.27 rel. units
Substance: wild-type β-tropomyosin (human TPM2) with N-terminal Met–Ala–Ser extension R91G

- stoichiometry N [1, 3]: 6.9
Substance: wild-type γ-tropomyosin (Tpm3.12, human TPM3) with N-terminal Met–Ala–Ser extension (natural protein)

- other: N (relative number of disordered fluorophores) ([2]; S1 (no nucleotide), Actin + Tpm + Tn, + Ca2+, parent: est. 0.17): 0.1 rel. units
- other: N (relative number of disordered fluorophores) [2, 10]: 0.1 rel. units
- other: N (relative number of disordered fluorophores) [2, 11]: 0.13 rel. units
- other: N (relative number of disordered fluorophores) [2, 12]: 0.13 rel. units
- other: N (relative number of disordered fluorophores) ([2]; S1 + ATP, Actin + Tpm + Tn, + Ca2+, parent: est. 0.18): 0.28 rel. units
- other: N (relative number of disordered fluorophores) [2, 13]: 0.35 rel. units
- other: N (relative number of disordered fluorophores) [2, 14]: 0.15 rel. units
Substance: wild-type γ-tropomyosin (Tpm3.12, human TPM3) with N-terminal Met–Ala–Ser extension E173A

- other: N (relative number of disordered fluorophores) ([2]; S1 (no nucleotide), Actin + Tpm + Tn, + Ca2+, parent: est. 0.15): 0.2 rel. units
- other: N (relative number of disordered fluorophores) [2, 10]: 0.17 rel. units
- other: N (relative number of disordered fluorophores) [2, 11]: 0.17 rel. units
- other: N (relative number of disordered fluorophores) [2, 12]: 0.16 rel. units
- other: N (relative number of disordered fluorophores) ([2]; S1 + ATP, Actin + Tpm + Tn, + Ca2+, parent: est. 0.32): 0.095 rel. units
- other: N (relative number of disordered fluorophores) [2, 13]: 0.1 rel. units
- other: N (relative number of disordered fluorophores) [2, 14]: 0.15 rel. units
Substance: wild-type γ-tropomyosin (Tpm3.12, human TPM3) with N-terminal Met–Ala–Ser extension R90P

- stoichiometry N [1, 3]: 6.9
Substance: α-tropomyosin (rat TPM1) K168E with N-terminal Met–Ala–Ser extension (natural protein)

- stoichiometry N [1, 3]: 6.9
Substance: α-tropomyosin (rat TPM1) R167H with N-terminal Met–Ala–Ser extension (natural protein)

- stoichiometry N [1, 3]: 6.9
Substance: β-tropomyosin (human TPM2) E117K with N-terminal Met–Ala–Ser extension (natural protein)

- stoichiometry N [1, 3]: 6.9
Substance: β-tropomyosin (human TPM2) Q147P with N-terminal Met–Ala–Ser extension (natural protein)

- stoichiometry N [1, 3]: 6.9
Substance: β-tropomyosin (human TPM2) R91G with N-terminal Met–Ala–Ser extension (natural protein)

- stoichiometry N [1, 3]: 6.9
Substance: γ-tropomyosin (Tpm3.12, human TPM3) E150A with N-terminal Met–Ala–Ser extension (natural protein)

- stoichiometry N [1, 3]: 6.9
Substance: γ-tropomyosin (Tpm3.12, human TPM3) E173A with N-terminal Met–Ala–Ser extension (natural protein)

- stoichiometry N [1, 3]: 6.9
Substance: γ-tropomyosin (Tpm3.12, human TPM3) R90P with N-terminal Met–Ala–Ser extension (natural protein)
